Data taken from patent US20200299400A1 (published 2020).

How the values were obtained:
[1] = biological target: T1, hCD40-Fc (human, UniProt P25942 21-193); test: SPR; dAb-Fc analyte on immobilized hCD40-Fc; avidity-influenced KDapparent
T1 construct: Immobilized on the sensor chip; construct not described; not shown: Fc part of hCD40-Fc not described

[2] = biological target: T2, human CD73 on human cell lines (human, UniProt P21589 27-549); test: cell-based or functional assay
T2 sequence (looked up): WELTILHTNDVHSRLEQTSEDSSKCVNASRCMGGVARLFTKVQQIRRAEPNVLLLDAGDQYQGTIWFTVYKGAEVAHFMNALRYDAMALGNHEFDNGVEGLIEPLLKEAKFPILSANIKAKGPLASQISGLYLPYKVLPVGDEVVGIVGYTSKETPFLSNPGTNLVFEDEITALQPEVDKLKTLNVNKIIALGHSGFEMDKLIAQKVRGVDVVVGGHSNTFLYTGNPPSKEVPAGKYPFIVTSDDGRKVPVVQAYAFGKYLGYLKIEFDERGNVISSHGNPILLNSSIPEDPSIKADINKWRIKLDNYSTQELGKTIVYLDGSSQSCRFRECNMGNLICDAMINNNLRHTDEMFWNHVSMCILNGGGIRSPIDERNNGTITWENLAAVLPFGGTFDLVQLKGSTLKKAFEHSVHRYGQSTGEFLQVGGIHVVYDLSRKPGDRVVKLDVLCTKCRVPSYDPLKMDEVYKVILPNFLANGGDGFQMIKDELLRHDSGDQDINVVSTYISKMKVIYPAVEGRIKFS

T1 sequence (P25942 21-193): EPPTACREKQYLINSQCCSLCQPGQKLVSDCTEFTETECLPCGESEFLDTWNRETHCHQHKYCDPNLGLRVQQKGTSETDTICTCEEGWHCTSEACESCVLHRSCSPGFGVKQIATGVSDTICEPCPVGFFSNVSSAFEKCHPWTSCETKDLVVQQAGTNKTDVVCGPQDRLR

Binder	Kd [1] [nM]	% internalization, H2228 [2] [%]
3h56-269-IgG1.3f (Fc fusion) EVQLLESGGGLVQPGGSLRLSCAASGFTFRDYEMWWVRQAPGKGLERVSAINPQGTRTYYADSVKGRFTISRDNSKNTLYLQMNSLRAEDTAVYYCAKLPFRFSDRGQGTLVTVSSASTEPKSCDKTHTCPPCPAPEAEGAPSVFLFPPKPKDTLMISRTPEVTCVVVDVSHEDPEVKFNWYVDGVEVHNAKTKPREEQYNSTYRVVSVLTVLHQDWLNGKEYKCKVSNKALPAPIEKTISKAKGQPREPQVYTLPPSREEMTKNQVSLTCLVKGFYPSDIAVEWESNGQPENNYKTTPPVLDSDGSFFLYSKLTVDKSRWQQGNVFSCSVMHEALHNHYTQKSLSLSPGK	< 1	–
3h56-269-IgG1.1f (Fc fusion) EVQLLESGGGLVQPGGSLRLSCAASGFTFRDYEMWWVRQAPGKGLERVSAINPQGTRTYYADSVKGRFTISRDNSKNTLYLQMNSLRAEDTAVYYCAKLPFRFSDRGQGTLVTVSSASTEPKSCDKTHTCPPCPAPEAEGAPSVFLFPPKPKDTLMISRTPEVTCVVVDVSHEDPEVKFNWYVDGVEVHNAKTKPREEQYNSTYRVVSVLTVLHQDWLNGKEYKCKVSNKALPSSIEKTISKAKGQPREPQVYTLPPSREEMTKNQVSLTCLVKGFYPSDIAVEWESNGQPENNYKTTPPVLDSDGSFFLYSKLTVDKSRWQQGNVFSCSVMHEALHNHYTQKSLSLSPGK	< 1	–
CD73.3-IgG1.1 (antibody, V domains shown) VH: EVQLVESGGGLVQPGRSLRLSCAASGFTFDDYAMHWVRQAPGKGLEWVSGISWKSGSIGYADSVKGRFTISRDNAKNSLYLQMNSLRAEDTVLYYCVKGYYVILTGLDYWGQGTLVTVSS VL: not shown	–	47
